Experimental data as given in article PMC3641832.

Assays:
[1] = biological target: cce_0566 from Cyanothece sp. ATCC 51142 (DUF269 family protein) (Cyanothece sp. ATCC 51142); assay: SEC
[2] = biological target: cce_0566 from Cyanothece sp. ATCC 51142 (DUF269 family protein) (Cyanothece sp. ATCC 51142); assay: crystal structure
[3] = biological target: cce_0566 from Cyanothece sp. ATCC 51142 (DUF269 family protein) (Cyanothece sp. ATCC 51142); assay: NMR 15N relaxation

Measured: stoichiometry N

cce_0566 from Cyanothece sp. ATCC 51142 (DUF269 family protein) (natural protein)
2: all assays above
